Test results as given in patent US8889408B2, “Factor taking part in transcription control” (Sony Corporation, priority 2002, dated 2014).

Tests used:
MM-1-19-P cells = test: ATRA-induced differentiation of MM-1-19-P rhabdomyosarcoma cells; assay type: cell-based, human
Source text: It is known that ATRA (all-trans retinoic acid) is an important inducer for tumor cell differentiation (20-22). The human rhabdomyosarcoma cell line MM-1-19-P is constituted mainly of small polygonal cells, which when provided with retinoic acid, ultimately differentiate into myotubular cytomegalic cells. In order to clarify the physiological role of HDART in the reaction ascribed to nuclear hormone receptors, the influence of the expression with HDART on the differentiation of MM-1-19-P caused by ATRA was analyzed.
MM-1-19-P cells were plated in a […] Petri dish, followed by co-transfection of the cells with 0.4 μg of pGFP vector and 2 μg of pcDNA3 (vacant vector) or pcDMA3-HDART (HDART expression vector). 24 hours after the transfection, the medium was changed with an ATRA-containing (2 μM) or ATRA-free fresh one. […] All experiments were repeated four times, and the number of cells assessed as positive for GFP was counted. It will be noted that in FIG. 12, the standard microphotographs of green fluorescence of GFP are shown in panels of FIGS. 12A, 12B, 12C and 12D, and the phase differential microphotographs are shown in panels of FIGS. 12E and 12F, respectively. In the figure, 12A indicates ATRA non-treated, vacant vector-introduced cells, 12B indicates ATRA treated, vacant vector-introduced cells, 12C indicates ATRA-non-treated, HDART expression vector-introduced cells, 12D indicates ATRA-treated, HDART expression vector-introduced cells, 12E indicates cells under the same conditions as in 12C above, and 12F indicates cells under the same conditions as in 12D above. In addition, the black arrow in the panel of FIG. 12F indicates undifferentiated GFP positive cells, and white arrow indicates differentiated cells.

HDAC3 = HDAC3 (Homo sapiens, UniProt O15379); test: GST pulldown analysis; assay type: binding; details: GST-HDART fused protein versus GST protein
Chain of HDAC3 (O15379 whole entry, species assumed, the tested form may be a part): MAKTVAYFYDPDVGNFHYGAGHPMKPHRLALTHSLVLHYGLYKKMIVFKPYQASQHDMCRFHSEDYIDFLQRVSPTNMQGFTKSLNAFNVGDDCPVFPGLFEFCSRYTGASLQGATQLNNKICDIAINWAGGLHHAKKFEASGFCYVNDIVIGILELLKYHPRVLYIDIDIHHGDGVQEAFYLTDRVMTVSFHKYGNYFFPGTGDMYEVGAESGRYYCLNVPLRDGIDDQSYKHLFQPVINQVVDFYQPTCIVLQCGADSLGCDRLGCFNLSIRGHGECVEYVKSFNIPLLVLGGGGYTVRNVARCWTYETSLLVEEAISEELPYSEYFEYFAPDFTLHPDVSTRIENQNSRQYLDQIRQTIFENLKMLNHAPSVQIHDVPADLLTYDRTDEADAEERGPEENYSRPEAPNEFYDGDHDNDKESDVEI
Source text: Further, the direct interaction between HDART and HDAC3 was investigated by GST pulldown analysis. The GST pulldown analysis was essentially carried out according to a known procedure (Tzamarias, D., and Struhl, K. (1995) Genes Dev 9(7), 821-31.). Using TNT (Registered Trademark) in vitro transcription/translation system (Promega), the in vitro translation of HDAC3 was made in the presence of ^35S-methionine. GST protein or GST-HDART fused protein was, respectively, expressed within Escherichia coli, followed by purification in a GST binding buffer solution (50 mM tris-HCl, 200 mM LiCl, 0.5% NP40, 5 mM EDTA, 1 mM PMSF) by use of glutathione sepharose. A binding reaction solution containing GST-HDART fused protein or control GST protein (about 1 μg) and ^35S-radio-labeled in vitro translation product (10 μl) in 1 ml of the GST binding buffer solution was prepared. This reaction solution was incubated at 4° C. for one hour while shaking, after which the resulting the sepharose-GST protein complex was washed five times with the GST binding buffer solution. […] It was confirmed by Coomassie brilliant blue staining that the GST fused protein was equally electrophoresed, and ^35S-radio-labeled HDAC was detected according to autoradiography.

Skip = biological target: T1, Skip (Homo sapiens, UniProt Q13573); test: Immunoprecipitation analysis of HDART-Skip interaction in 293 cells; assay type: binding; design: expressed in transfected cells; host or cells: HEK293 cells
T1 sequence (Q13573 1-536): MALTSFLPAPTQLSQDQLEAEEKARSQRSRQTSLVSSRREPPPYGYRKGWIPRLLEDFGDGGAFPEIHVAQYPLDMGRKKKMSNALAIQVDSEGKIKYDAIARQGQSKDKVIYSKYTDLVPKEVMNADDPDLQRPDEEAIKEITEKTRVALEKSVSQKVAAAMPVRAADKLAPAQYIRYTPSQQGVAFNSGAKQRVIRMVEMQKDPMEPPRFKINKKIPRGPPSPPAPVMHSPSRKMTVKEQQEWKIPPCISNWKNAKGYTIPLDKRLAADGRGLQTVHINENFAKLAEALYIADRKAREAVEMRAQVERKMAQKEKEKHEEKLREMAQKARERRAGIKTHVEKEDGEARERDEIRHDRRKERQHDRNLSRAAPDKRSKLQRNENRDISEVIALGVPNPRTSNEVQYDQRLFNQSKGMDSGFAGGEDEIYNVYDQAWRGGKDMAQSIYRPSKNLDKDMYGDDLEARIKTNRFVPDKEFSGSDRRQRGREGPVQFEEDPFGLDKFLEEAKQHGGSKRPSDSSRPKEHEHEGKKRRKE
Procedure: The interaction between HDART and Skip inside the mammalian cells was confirmed according to the immunoprecipitation analysis. For the confirmation, the Flag-Skip expression vector expressing the Flag-Skip fused protein and the GFP-HDART expression protein expressing the GFP-HDART fused protein (FIG. 4A) were transfected into HEK293 cells by use of Effectene kit (QIAGEN™). It will be noted that a control experiment was conducted such that the Flag-Skip expression vector alone and the GFP-HDART expression vector were, respectively, transfected into cells of the same type under the same conditions.
24 hours after the transfection, the cells were lysed on ice for 30 minutes in a Nonidet P-40 buffer solution (50 mM Tris HCl (pH 7.6), 150 mM NaCl, 5 mM EDTA, 0.5% Nonidet P-40 and 1 mM PMSF) containing 100 μl of a protease inhibitory substance cocktail (Sigma #p8340) to prepare a cell extract (1 mg). This extract was incubated for 30 minutes at 4° C. along with 40 μl of protein A/G sepharose beads for preliminary clarification. Next, the thus clarified supernatant extract was further incubated for 1 hour along with an anti-Flag antibody or a negative control mouse IgG antibody (2 μg), followed by precipitation for 30 minutes by use of 40 μl of protein A/G sepharose beads. […]
Further, the interaction of endogenous HDART and externally introduced Skip was analyzed. […]

pulldown of in vitro translated HDAC3 (HDAC3): pulled down
co-precipitation of endogenous HDART with Flag-Skip (Skip; 293 cells, anti-Flag antibody): co-precipitated
interaction of foreign HDART (GFP-HDART) with Flag-Skip (Skip; co-expression in 293 cells, immunoprecipitation with anti-Flag antibody): specifically interact
B1: HDART: HDAC associated repressor TPR protein, 855 amino acids, SEQ ID NO: 2; transcription repressing factor, used as fusions or expressed from vector (protein, listed as Homo sapiens)
chain: MVVMARLSRPERPDLVFEEEDLPYEEEIMRNQFSVKCWLRYIEFKQGAPKPRLNQLYERALKLLPCSYKLWYRYLKARRAQVKHRCVTDPAYEDVNNCHERAFVFMHKMPRLWLDYCQFLMDQGRVTHTRRTFDRALRALPITQHSRIWPLYLRFLRSHPLPETAVRGYRRFLKLSPESAEEYIEYLKSSDRLDEAAQRLATVVNDERFVSKAGKSNYQLWHELCDLISQNPDKVQSLNVDAIIRGGLTRFTDQLGKLWCSLADYYIRSGHFEKARDVYEEAIRTVMTVRDFTQVFDSYAQFEESMIAAKMETASELGREEEDDVDLELRLARFEQLISRRPLLLNSVLLRQNPHHVHEWHKRVALHQGRPREIINTYTEAVQTVDPFKATGKPHTLWVAFAKFYEDNGQLDDARVILEKATKVNFKQVDDLASVWCQCGELELRHENYDEALRLLRKATALPARRAEYFDGSEPVQNRVYKSLKVWSMLADLEESLGTFQSTKAVYDRILDLRIATPQIVINYAMFLEEHKYFEESFKAYERGISLFKWPNVSDIWSTYLTKFIARYGGRKLERARDLFEQALDGCPPKYAKTLYLLYAQLEEEWGLARHAMAVYERATRAVEPAQQYDMFNIYIKRAAEIYGVTHTRGIYQKAIEVLSDEHAREMCLRFADMECKLGEIDRARAIYSFCSQICDPRTTGAFWQTWKDFEVRHGNEDTIKEMLRIRRSVQATYNTQVNFMASQMLKVSGSATGTVSDLAPGQSGMDDMKLLEQRAEQLAAEAERDQPLRAQSKILFVRSDASREELAELAQQVNPEEIQLGEDEDEDEMDLEPNEVRLEQQSVPAAVFGSLKED
change in phenotype on ATRA treatment (MM-1-19-P cells; HDART expression vector-introduced GFP positive cells, ATRA 2 μM, 48 hours): little change in the phenotype
numbers of GFP positive cells, ATRA treated versus non-treated group (MM-1-19-P cells; HDART expression vector-introduced cells): same
